B1: SPDEF (parent)
chain: FQELAGKELCAMSEEQFRQRSPLG
B2: LOC100129726 (parent)
chain: VHTGCHKKLGPEARRPRTRWGKN
B3: WEE1 (parent)
chain: FISRTSIPNAASEEGDEDDWASNK

Variants of: B1
Experiment: protein stability index of a GFP-peptide fusion (GPS, HEK-293T) (PSI 1-6); higher = more stable
Conditions: c terminus: a fixed tail appended
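Note: lentivirally expressed fusions sorted by FACS into six bins by GFP to DsRed ratio, PSI derived from sequencing read proportions per bin multiplied by bin number.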

Protein stability index, by site and new letter:
G24: N 2.72; P 2.89; Q 2.44; R 2.42; S 2.74; T 2.76; V 2.43; W 1.93; Y 2.12

Variants of: B2
Experiment: as above
Conditions: c terminus: native

Protein stability index, by site and new letter:
V1: C 2.12; E 2.96; H 2.43; I 2.54; L 1.84; M 1.73; R 2.02; S 1.99
H2: A 2.13; D 1.82; G 2.38; K 1.94; L 2.38; M 2.79; N 2.5; P 2.05; Q 2.44; R 4; T 1.49; V 2.99; W 1.38; Y 1.85
T3: D 3.27; F 1.95; I 2.94; P 1.67; Y 1.01
G4: C 2.51; D 2.33; E 3.67; F 2.72; I 2.66; K 2.71; L 2.91; M 2.44; N 1.01; P 2.15; R 2.47; S 2.56; V 2.14
C5: A 2.57; E 2.57; F 1.85; G 2.34; I 1.63; K 2.27; L 2.41; M 2.41; N 1.59; P 2.09; Q 1.54; R 2.29; S 1.51; T 2.35; V 2.93; W 1.2; Y 1.98
H6: A 1.63; E 1.41; F 1.81; G 1.64; K 1.38; M 2.12; P 1.77; R 2.85; S 1.85; T 1.76; Y 2.62
K7: E 1.87; H 2.33; M 4.17; V 1.08
K8: C 1.65; E 1.63; I 1.37; L 2.63; M 2.25; P 2.52; Q 2.41; S 2.25
L9: C 2.4; H 1.62; N 2.8; P 2.92; Q 2.72; R 2.64; V 2.02
G10: A 3.09; F 1.66; H 1.74; I 1.33; K 2.05; L 1.22; M 1.61; P 3.1; R 2.37; T 2.48; V 1.39; W 2.17; Y 1.29
P11: A 2.24; D 2.18; F 2.47; K 2.05; M 2.37; R 1.01; S 1.53; T 2.67; V 2.25; W 1.46; Y 2.17
E12: C 3.61; D 2.56; F 1.23; H 2.21; K 1.01; L 2.17; M 1.47; Q 1.75; R 3.79; T 1.42; V 1.23; Y 2.69
A13: E 2.55; F 2.49; K 1.11; N 1.94; R 1.64; S 2.71; W 2.94
R14: A 3.44; C 2.81; E 3.01; F 2.72; G 4.21; H 2.71; I 3.23; K 2.05; M 3.01; P 4.64; V 3.24; W 1.54; Y 3
R15: C 1.41; E 2.63; F 3.27; G 3.43; H 2.44; I 1.27; L 1.7; N 2.42; P 2.75; Q 1.75; V 1.34; Y 2.06
P16: C 1.24; E 1.8; G 3.15; H 1.39; K 3.74; N 3.05; Q 1.03; S 1.46
R17: A 2.5; C 1.93; D 4.38; E 2.26; F 2.48; G 2.75; I 1.98; K 1.36; L 1.7; N 3.66; P 4.37; Q 1.01; S 2.7; T 2.59; W 1.66; Y 2.15
T18: A 2.96; C 1.63; D 3.96; E 3.94; F 2.03; G 3.94; H 1.7; I 1.4; L 3.05; M 2; N 1.74; Q 2.47; S 2.69; V 1.29; Y 2.37
R19: D 5.13; E 3.77; F 2.3; H 2.59; K 1.49; L 3.09; M 2.41; N 2.5; W 2.67; Y 1.92
W20: A 3.77; C 2.99; F 2.87; G 1.33; H 2.02; I 3.89; K 5; L 4.36; M 3.15; N 4.45; P 2.01; Q 3.66; R 4.73; S 4.58; T 4.15; V 3.67; Y 2.26
G21: A 3.47; C 3.16; D 4; E 4.54; F 3.36; H 4.34; I 2.85; K 4.43; L 3.56; M 3.89; N 4.39; P 4.47; Q 4.45; T 3.57; V 2.78; W 2.69
K22: I 4.11; P 3.43; T 2.93
N23: C 1.61; D 2.78; F 2.03; I 1.3; L 1.42; P 2.62; Q 1.63; S 1.74; T 2.35; W 2.27

Variants of: B3
Experiment: as above
Conditions: c terminus: a fixed tail appended

Protein stability index of substitutions, site by site:
F1: A 5.37; C 5.29; D 5.56; E 5.46; G 5.71; H 5.37; I 5.73; K 5.42; L 5.6; M 5.24; N 5.29; P 5.89; Q 5.63; R 4.92; S 5.84; T 5.32; V 5.41; W 4.88; Y 4.39
I2: A 4.66; C 3.34; D 5.62; E 5.59; F 5.38; G 5.75; H 3.36; K 5.46; L 5.06; M 4.84; N 5.67; P 5.21; Q 4.58; R 5.32; S 5.02; T 4.88; V 2.78; W 4.79; Y 4.95
S3: A 4.44; C 4.11; D 4.67; E 4.78; F 3.57; G 3.17; H 3.59; I 3.21; K 4.56; L 3.95; M 4; N 4.62; P 3.67; Q 4.09; R 4.02; T 4.26; V 3.6; W 2.85; Y 3.37
R4: A 3.49; C 4.37; D 4.92; E 5.35; F 3.15; G 4.62; H 4.15; I 3.85; K 3.86; L 4.05; M 4.25; N 4.64; P 3.68; Q 4.6; S 4.2; T 4.94; V 4.39; W 3.67

— the supplement of paper PMC10567573
